Results: PMC10538386 (Bioconjugate chemistry, 2023)

Legend:
[1] = target: the molecule itself; assay: transmission electron microscopy
SEC = target: the molecule itself; assay: SEC

B1: PhMV Cys1+2 (A31C S137C) coat protein, assembled as virus-like particles (natural protein, Physalis mottle virus)
chain: MDSSEVVKVKQASIPAPGSILSQPNTEQSPCIVLPFQFEATTFGTAETAAQVSLQTADPITKLTAPYRHAQIVECKAILTPTDLAVSNPLTVYLAWVPANSPATPTQILRVYGGQSFVLGGAISAAKTIEVPLNLDCVNRMLKDSVTYTDTPKLLAYSRAPTNPSKIPTASIQISGRIRLSKPMLIAN
B1: binds [1].

B2: PhMV Cys2 (S137C) coat protein, assembled as virus-like particles (natural protein, Physalis mottle virus)
chain: MDSSEVVKVKQASIPAPGSILSQPNTEQSPAIVLPFQFEATTFGTAETAAQVSLQTADPITKLTAPYRHAQIVECKAILTPTDLAVSNPLTVYLAWVPANSPATPTQILRVYGGQSFVLGGAISAAKTIEVPLNLDCVNRMLKDSVTYTDTPKLLAYSRAPTNPSKIPTASIQISGRIRLSKPMLIAN
B2: binds (SEC).

B3: PhMV Cys1 (A31C) coat protein, assembled as virus-like particles (natural protein, Physalis mottle virus)
chain: MDSSEVVKVKQASIPAPGSILSQPNTEQSPCIVLPFQFEATTFGTAETAAQVSLQTADPITKLTAPYRHAQIVECKAILTPTDLAVSNPLTVYLAWVPANSPATPTQILRVYGGQSFVLGGAISAAKTIEVPLNLDSVNRMLKDSVTYTDTPKLLAYSRAPTNPSKIPTASIQISGRIRLSKPMLIAN
B3: binds (SEC).
